These results are taken from patent US20240261427A1, “LINKERS, DRUG LINKERS AND CONJUGATES THEREOF AND METHODS OF USING THE SAME” (ProfoundBio US Co., priority 2021, published 2024).

This test deals with Hela cells. The experiment in a line: Flow cytometry binding to Hela cells. The format is cell-based, human. The following applies: transfection supernatant, FIG. 6. The procedure: The binding activity of the antibodies to Hela cells (ATCC® CCL-2, provided by COBIOER) and to RPTEC/TERT1 cells (ATCC® CRL-4031, provided by COBIOER) was tested by flow cytometry using the transfection supernatants. Briefly, target cells were digested with 0.02% EDTA-2Na, centrifuged at 1500 rpm for 3 mins, and resuspended with PBS. After counting, the cells were added to a 1.5 ml centrifuge tube with 1×10^6 cells per tube, centrifuged at 1500 rpm for 5 minutes, and the supernatant was discarded. Then all the operations were carried out on an ice bath. 100 μL of transfection supernatant was added to each 1.5 ml centrifuge tube. Blank cells, blank cells plus secondary antibody, medium and HEK293 supernatant were set up as the controls. The reaction was performed on an ice bath for 1 hour. Then the cells were pelleted and washed twice with PBS. The secondary antibody, goat anti-Human IgG (PE, abcam, ab98596), was diluted (1:200) and added using 100 μL per tube. The reaction was performed on an ice bath for 1 hour in the dark. The cells were pelleted again and washed twice with PBS, resuspended in 300 μL PBS, and FL2 fluorescence readings were measured by cytometry. The results were analyzed by FlowJo™10 software.
Anti-FOLR1 antibody binding to Hela and RPTEC/TERT1 cells was tested by FACS. The study was carried out as described above. […]
(In general: In flow cytometry, cells or beads pass a laser one at a time.)

B1: F40: anti-FOLR1 antibody clone; "Clone F40 has a different HCDRs and LCDRs, and with different HFR and LFR" (antibody, V domains shown)
VH: EVQLLESGGGVVQPGRSLRLSCAASGFTFSSYAMHWVRQAPGKGLEWVAVISYDGSNKYYADSVKGRFIISRDNSKNTVYLQMNSLRAEDTAVYYCARPTYVFTYTGSSFDYWGQGTQVTVSS
VL: DIQVTQSPSSLSASLGDTVSITCRASRGLTDSVAWYQQKPGQAPKLLIYAASTLQSGVPSRFGGSGSGSYFTLTITSLQPEDVATYYCQNYKSAPWTFGQGTKVEIK
Take B1: the Hela cell binding entry is given as “weakly positive”.
